{"source": "paper PMC10542344", "about": "(Communications Biology, 2023)", "binders": {"B1": {"name": "BDG11.001 (clone 11.4C_11.001 as soluble human IgG1) (antibody, V domains shown)", "VH": "EVQLVQSGAEVKKPGESLKISCKGSGYSFTSYWIGWVRQMPGKGLEWMGIIYPSDSDTRYSPSFQGQVTISADKSISTAYLQWSSLKASDTAMYYCARYPNYGAFDIWGQGTMVTVSS", "VL": "EIVLTQSPATLSLSPGERATLSCRASQSVWSYLAWYQQKPGQAPRLLIYDASNRATGIPARFSGSGSGTDFTLTISSLEPEDFAVYYCQQYFYWGWPFGQGTKLEIK", "notes": "as the VH of m6 (clone 11.4C_11.001); the same heavy chain stands in 11.003 (PDB 7Z2M); changes are against the VH of AAL160; human IgG1 heavy-chain constant region, from the plasmid pSF-CMV-HuIgG1_HC; as the VL of m6 (clone 11.4C_11.001); has W30, Y93, W94; the light chain of 11.003 in PDB 7Z2M differs from it at position 30 (Phe for Trp); as in the light chain of 11.003 in PDB 7Z2M; IgG1; also …"}, "B2": {"name": "BDG11.003 (human IgG1) (antibody, V domains shown)", "VH": "B1 VH", "VL": "B1 VL with W30F", "notes": "as the VH of m7 (BDG11.001); human IgG1 heavy-chain constant region, from the plasmid pSF-CMV-HuIgG1_HC; as the VL of m7 (BDG11.001) with W30F; that 11.003 is the W30F variant follows from the sentence that 11.003 has Phe30 in L1 where AAL160 has Ser; light-chain numbering; IgG1; seven mutations against AAL160; source: Expi-CHO, transfected, purified from the supernatant (protein A beads); …"}, "B3": {"name": "BDG11.004 (human IgG1) (antibody, V domains shown)", "VH": "B1 VH", "VL": "B1 VL with W30S", "notes": "as the VH of m7 (BDG11.001); human IgG1 heavy-chain constant region, from the plasmid pSF-CMV-HuIgG1_HC; as the VL of m7 (BDG11.001) with one substitution; light-chain numbering; as in the light chain of 11.003 in PDB 7Z2M; IgG1; single mutant of BDG11.001; source: Expi-CHO, transfected, purified from the supernatant (protein A beads); copies: 2 + 2"}, "B4": {"name": "BDG11.006 (human IgG1) (antibody, V domains shown)", "VH": "B1 VH", "VL": "B1 VL with W94N", "notes": "as for B3"}, "B5": {"name": "BDG11.007 (human IgG1) (antibody, V domains shown)", "VH": "B1 VH", "VL": "B1 VL with Y93N", "notes": "as for B3"}, "B6": {"name": "AAL160 scFv displayed on yeast (scFv, V domains shown)", "VH": "B1 VH with P100T, Y102W, G103D", "VL": "B1 VL with W30S, Y91R, F92S, Y93N, G95M, W96F", "notes": "VH of AAL160; also held by the deposited AAL160 Fab structures; three repeats of the G4S linker between VH and VL; VL of AAL160; scFv in heavy to light-chain orientation; VH 99% identical to IGHV5-51*01, VL 100% identical to IGKV3-11*01; also called template antibody; anti-IL-1β antibody; source: yeast surface display, EBY-100, induced with galactose"}, "B7": {"name": "clone 11.1_C3 scFv displayed on yeast (scFv, V domains shown)", "VH": "B1 VH with P100T, A104N", "VL": "B1 VL with Y91G, G95P", "notes": "as the VH of m1 (AAL160) with changes in CDR H3; numbers count on the scFv; three repeats of the G4S linker between VH and VL; as the VL of m1 (AAL160) with changes in CDR L1 and L3; First-generation clone from library A_11.1; nine mutations against AAL160, eight in H3 and L3 and one in L1; source: yeast surface display, EBY-100, induced with galactose"}, "B8": {"name": "clone 11.1_C5 scFv displayed on yeast (scFv, V domains shown)", "VH": "B1 VH with P100T, A104N", "VL": "B1 VL with S31W, Y91G, G95P", "notes": "as the VH of m1 (AAL160) with changes; three repeats of the G4S linker between VH and VL; as the VL of m1 (AAL160) with changes; First-generation clone from library A_11.1; source: yeast surface display, EBY-100, induced with galactose"}, "B9": {"name": "clone 11.4_C12 scFv displayed on yeast (scFv, V domains shown)", "VH": "B1 VH", "VL": "B1 VL with G95S", "notes": "as the VH of m1 (AAL160) with changes in CDR H3; three repeats of the G4S linker between VH and VL; as the VL of m1 (AAL160) with changes; has W30, Y93 and W94 (light-chain numbering); also called 114_R5_C12; source: yeast surface display, EBY-100, induced at 37 to 40 °C"}, "B10": {"name": "clone 11.4_C13 scFv displayed on yeast (scFv, V domains shown)", "VH": "B1 VH with P100T, G103E", "VL": "B1 VL with Y91S, G95P, W96F", "notes": "as the VH of m1 (AAL160) with changes; has no T100P; three repeats of the G4S linker between VH and VL; as the VL of m1 (AAL160) with changes; source: yeast surface display, EBY-100, induced with galactose"}, "B11": {"name": "AAL160 Fab (Fab, V domains shown)", "VH": "B1 VH with P100T, Y102W, G103D", "VL": "B1 VL with W30S, Y91R, F92S, Y93N, G95M, W96F", "notes": "Fab heavy-chain fragment of AAL160 after papain digestion; light chain of AAL160; also called parent AAL160 Fab; source: papain digestion of AAL160 at 37 °C, Fab purified over Protein A Sepharose Fast Flow"}}, "note": "Changes are numbered by the printed parent chain. Names and notes keep the numbering of the source."}
{"target": "T1, human IL-2 (Homo sapiens, UniProt P60568)", "T1 construct": "human interleukin-2; also called hIL-2", "T1 sequence (P60568 21-153)": "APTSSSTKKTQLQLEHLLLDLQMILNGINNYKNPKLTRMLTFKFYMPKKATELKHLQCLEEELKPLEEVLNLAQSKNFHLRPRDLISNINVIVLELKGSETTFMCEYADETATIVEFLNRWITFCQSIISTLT", "experiment": "ELISA; polyspecificity assay; plates coated with 5 μg/ml antigen, blocked with PBS 0.5% BSA; 100 nM antibody 1 h at RT; anti-human Fc-HRP", "settings": "both partners purified"}
{"binder": "B1", "binding result": "no binding (tested: 100 nM antibody)"}
{"binder": "B2", "binding result": "no binding (tested: 100 nM antibody)"}
{"binder": "B3", "binding result": "no binding (tested: 100 nM antibody)"}
{"binder": "B4", "binding result": "no binding (tested: 100 nM antibody)"}
{"binder": "B5", "binding result": "no binding (tested: 100 nM antibody)"}
{"target": "T2, BSA (Bos taurus, UniProt P02769)", "T2 construct": "bovine serum albumin, printed only as BSA; a BSA coating is not described", "T2 sequence (P02769 25-607)": "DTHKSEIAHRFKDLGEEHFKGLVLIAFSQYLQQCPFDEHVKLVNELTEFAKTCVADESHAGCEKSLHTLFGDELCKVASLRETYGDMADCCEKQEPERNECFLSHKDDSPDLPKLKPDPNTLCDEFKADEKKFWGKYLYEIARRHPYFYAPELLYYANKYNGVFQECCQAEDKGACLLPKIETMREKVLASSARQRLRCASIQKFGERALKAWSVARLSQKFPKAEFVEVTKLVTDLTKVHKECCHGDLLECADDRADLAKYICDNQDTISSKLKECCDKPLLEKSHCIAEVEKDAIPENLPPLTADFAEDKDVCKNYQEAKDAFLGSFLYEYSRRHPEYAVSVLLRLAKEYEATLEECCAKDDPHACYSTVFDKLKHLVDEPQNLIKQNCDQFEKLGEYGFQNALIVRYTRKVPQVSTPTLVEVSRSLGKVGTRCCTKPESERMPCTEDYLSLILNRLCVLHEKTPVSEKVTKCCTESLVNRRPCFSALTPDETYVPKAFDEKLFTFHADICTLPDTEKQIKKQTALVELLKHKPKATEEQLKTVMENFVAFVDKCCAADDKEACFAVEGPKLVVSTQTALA", "experiment": "ELISA; polyspecificity assay; plates coated with 5 μg/ml antigen, blocked with PBS 0.5% BSA; 100 nM antibody 1 h at RT; anti-human Fc-HRP", "settings": "both partners purified"}
{"binder": "B1", "binding result": "no binding (tested: 100 nM antibody)"}
{"binder": "B2", "binding result": "no binding (tested: 100 nM antibody)"}
{"binder": "B3", "binding result": "no binding (tested: 100 nM antibody)"}
{"binder": "B4", "binding result": "no binding (tested: 100 nM antibody)"}
{"binder": "B5", "binding result": "no binding (tested: 100 nM antibody)"}
{"target": "T3, insulin (Homo sapiens (assumed), UniProt P01308)", "T3 construct": "insulin B chain; insulin A chain", "T3 sequence (P01308 whole entry, looked up)": "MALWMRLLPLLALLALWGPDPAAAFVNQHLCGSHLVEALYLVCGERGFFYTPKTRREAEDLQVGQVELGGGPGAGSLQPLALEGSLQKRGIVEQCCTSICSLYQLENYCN", "experiment": "ELISA; polyspecificity assay; plates coated with 5 μg/ml antigen, blocked with PBS 0.5% BSA; 100 nM antibody 1 h at RT; anti-human Fc-HRP", "settings": "both partners purified"}
{"binder": "B1", "binding result": "no binding (tested: 100 nM antibody)"}
{"binder": "B2", "binding result": "no binding (tested: 100 nM antibody)"}
{"binder": "B3", "binding result": "no binding (tested: 100 nM antibody)"}
{"binder": "B4", "binding result": "no binding (tested: 100 nM antibody)"}
{"binder": "B5", "binding result": "no binding (tested: 100 nM antibody)"}
{"target": "T4, hTNFR2 (Homo sapiens, UniProt P20333)", "T4 construct": "human TNF receptor 2", "T4 sequence (P20333 23-461)": "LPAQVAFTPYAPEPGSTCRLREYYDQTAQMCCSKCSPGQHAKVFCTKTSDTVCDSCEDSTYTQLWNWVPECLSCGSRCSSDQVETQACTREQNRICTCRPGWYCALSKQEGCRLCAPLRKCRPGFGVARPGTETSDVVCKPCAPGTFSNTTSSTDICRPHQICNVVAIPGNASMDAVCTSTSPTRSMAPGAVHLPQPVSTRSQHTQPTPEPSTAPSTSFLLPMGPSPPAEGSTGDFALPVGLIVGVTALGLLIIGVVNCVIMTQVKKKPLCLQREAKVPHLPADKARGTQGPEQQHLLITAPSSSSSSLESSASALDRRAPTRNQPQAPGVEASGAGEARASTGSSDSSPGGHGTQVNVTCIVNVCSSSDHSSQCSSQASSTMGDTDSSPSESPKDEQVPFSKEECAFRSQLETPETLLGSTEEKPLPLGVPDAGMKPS", "experiment": "ELISA; polyspecificity assay; plates coated with 5 μg/ml antigen, blocked with PBS 0.5% BSA; 100 nM antibody 1 h at RT; anti-human Fc-HRP", "settings": "both partners purified"}
{"binder": "B1", "binding result": "no binding (tested: 100 nM antibody)"}
{"binder": "B2", "binding result": "no binding (tested: 100 nM antibody)"}
{"binder": "B3", "binding result": "no binding (tested: 100 nM antibody)"}
{"binder": "B4", "binding result": "no binding (tested: 100 nM antibody)"}
{"binder": "B5", "binding result": "no binding (tested: 100 nM antibody)"}
{"target": "T5, IL-1β (used in the yeast display FACS analysis) (Homo sapiens, UniProt P01584)", "T5 construct": "interleukin-1 beta; Species is said only of the IL-1β of the crystal (human)", "experiment": "flow cytometry on cells; scFv displayed on yeast EBY-100; incubated with soluble antigen (biotinylated human IL-17A in PBS 0.1% BSA, 1 h), labelled with anti-Myc-FITC (expression) and streptavidin-APC (binding)", "settings": "one partner purified"}
{"binder": "B6", "binding result": "binds"}
{"binder": "B7", "binding result": "no binding"}
{"binder": "B8", "binding result": "no binding"}
{"target": "T6, biotinylated human IL-17A (Homo sapiens, UniProt Q16552, biotin (site not stated))", "T6 construct": "human interleukin-17A; also called hIL-17A; biotinylated IL-17A", "T6 sequence (Q16552 24-155)": "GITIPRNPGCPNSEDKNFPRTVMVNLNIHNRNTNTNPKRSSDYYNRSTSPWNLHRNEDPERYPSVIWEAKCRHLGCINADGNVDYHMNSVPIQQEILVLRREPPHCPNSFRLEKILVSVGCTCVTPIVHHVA", "experiment": "flow cytometry on cells; scFv displayed on yeast EBY-100; incubated with soluble antigen (biotinylated human IL-17A in PBS 0.1% BSA, 1 h), labelled with anti-Myc-FITC (expression) and streptavidin-APC (binding)", "settings": "one partner purified"}
{"binder": "B6", "binding result": "no binding"}
{"binder": "B7", "binding result": "binds"}
{"binder": "B8", "binding result": "binds"}
{"binder": "B9", "binding result": "binds"}
{"binder": "B10", "binding result": "binds"}
{"target": "T7, human IL-17A (recombinant) (human, UniProt Q16552)", "T7 sequence (Q16552 24-155)": "as above", "experiment": "cell-based or functional assay", "settings": "not given", "units": {"IC50 of inhibition of IL-17A dependent IL-6 secretion by BJ fibroblasts (1 nM IL-17A; blocks IL-17A binding to IL-17RA on the cells)": "nM"}}
{"binder": "B1", "IC50 of inhibition of IL-17A dependent IL-6 secretion by BJ fibroblasts (1 nM IL-17A; blocks IL-17A binding to IL-17RA on the cells)": 4.8}
{"binder": "B2", "IC50 of inhibition of IL-17A dependent IL-6 secretion by BJ fibroblasts (1 nM IL-17A; blocks IL-17A binding to IL-17RA on the cells)": 33.9}
{"binder": "B3", "IC50 of inhibition of IL-17A dependent IL-6 secretion by BJ fibroblasts (1 nM IL-17A; blocks IL-17A binding to IL-17RA on the cells)": 163}
{"binder": "B4", "IC50 of inhibition of IL-17A dependent IL-6 secretion by BJ fibroblasts (1 nM IL-17A; blocks IL-17A binding to IL-17RA on the cells)": 50.5}
{"binder": "B5", "IC50 of inhibition of IL-17A dependent IL-6 secretion by BJ fibroblasts (1 nM IL-17A; blocks IL-17A binding to IL-17RA on the cells)": 286}
{"target": "T7, human IL-17A (recombinant)", "experiment": "SPR; Biacore T100, CM5 chip; tested antibody captured on anti-human IgG to about 500 RU; IL-17A analyte in PBS 0.05% tween, two- or three-fold dilutions, multi-cycle kinetics", "settings": "both partners purified", "units": {"Kd": "nM"}}
{"binder": "B1", "Kd": 0.75}
{"target": "T8, recombinant human IL-1β (Homo sapiens)", "T8 construct": "human interleukin-1 beta; also called IL-1b", "experiment": "crystal structure; AAL160 Fab with a 1.5-fold excess of recombinant human IL-1β, complex purified by SEC; 3.30 Å", "settings": "both partners purified"}
{"binder": "B11", "binding result": "binds"}
